Data as given in patent US20180335433A1 (LA JOLLA INSTITUTE FOR ALLERGY AND IMMUNOLOGY, published 2018).

Experiments:
[1] = biological target: T1, SH3-inactivated (W97A) Lck (UniProt P06239 2-509, limits assumed); experiment: anti-Myc IP from stimulated JCam1.6 cells reconstituted with Lck W97A, immunoblot for Lck (FIG. 12)
T1 construct: whole, on cells; also called Lck W97A
Procedure: FIG. 12 Interaction between CD28 and the V3 of PKCθ is Lck-dependent. PKCθ-Lck-CD28 association in Lck-deficient (JCam1.6) Jurkat cells cotransfected with Myc-tagged PKCθ−V3 plus WT Lck or its indicated mutants, Transfected cells were stimulated with anti-CD3 and anti-CD28 for 5 min, immunoprecipitated with an anti-Myc Ab, and immunoblotted for Lck and endogenous CD28. Data are from three experiments.

[2] = biological target: T2, CD28, endogenous in primary mouse CD4+ T cells (mouse, UniProt P31041 20-218); experiment: anti-CD28 co-IP, stimulated transduced PKCθ-/- T cells (FIG. 4c)
T2 construct: whole, on cells; Immunoprecipitated with anti-CD28 mAb from lysates of retrovirally transduced mouse T cells; also called murine CD28
T2 sequence (P31041 20-218): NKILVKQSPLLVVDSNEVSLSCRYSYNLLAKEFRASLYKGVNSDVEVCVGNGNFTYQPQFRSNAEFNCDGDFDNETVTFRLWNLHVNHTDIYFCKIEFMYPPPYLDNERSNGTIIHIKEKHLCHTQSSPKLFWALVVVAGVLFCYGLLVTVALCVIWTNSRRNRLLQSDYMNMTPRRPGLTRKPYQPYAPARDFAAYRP

T1 sequence (P06239 2-509 W97A limits assumed): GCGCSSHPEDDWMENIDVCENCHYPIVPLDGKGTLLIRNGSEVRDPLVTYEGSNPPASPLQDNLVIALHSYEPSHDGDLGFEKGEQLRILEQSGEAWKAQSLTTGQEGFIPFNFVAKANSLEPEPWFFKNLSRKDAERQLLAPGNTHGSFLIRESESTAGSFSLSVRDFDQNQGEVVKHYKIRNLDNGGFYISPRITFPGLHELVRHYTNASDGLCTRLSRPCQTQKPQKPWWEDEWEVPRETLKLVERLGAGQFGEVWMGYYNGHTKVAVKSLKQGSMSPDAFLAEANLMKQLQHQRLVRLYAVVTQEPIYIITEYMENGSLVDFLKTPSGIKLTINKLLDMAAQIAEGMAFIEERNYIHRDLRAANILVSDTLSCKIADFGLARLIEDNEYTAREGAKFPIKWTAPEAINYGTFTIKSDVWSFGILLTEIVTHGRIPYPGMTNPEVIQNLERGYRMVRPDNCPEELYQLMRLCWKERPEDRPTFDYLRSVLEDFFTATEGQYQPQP

Row | binding result [1] | binding result [2] | Binder
1 | no binding |  | Myc-tagged PKCθ V3 domain (aa 282-379 of human PKCθ, N-terminal Myc tag) (other, also called Myc-tagged V3; isolated V3 domain; not shown: N-terminal Myc tag of the pMIG vector) GINQKLMAEALAMIESTQQARCLRDTEQIFREGPVEIGLPCSIKNEARPPCLPTPGKREPQGISWESPLDEVDKMCHLPEPELNKERPSLQIKLKIED
2 |  | no binding | PKCθ P330/1/4/6A (4P-A; all four Pro residues of the PR motif mutated to alanine) (enzyme) MSPFLRIGLSNFDCGSCQSCQGEAVNPYCAVLVKEYVESENGQMYIQKKPTMYPPWDSTFDAHINKGRVMQIIVKGKNVDLISETTVELYSLAERCRKNNGKTEIWLELKPQGRMLMNARYFLEMSDTKDMNEFETEGFFALHQRRGAIKQAKVHHVKCHEFTATFFPQPTFCSVCHEFVWGLNKQGYQCRQCNAAIHKKCIDKVIAKCTGSAINSRETMFHKERFKIDMPHRFKVYNYKSPTFCEHCGTLLWGLARQGLKCDACGMNVHHRCQTKVANLCGINQKLMAEALAMIESTQQARCLRDTEQIFREGPVEIGLPCSIKNEARAACLATAGKREPQGISWESPLDEVDKMCHLPEPELNKERPSLQIKLKIEDFILHKMLGKGSFGKVFLAEFKKTNQFFAIKALKKDVVLMDDDVECTMVEKRVLSLAWEHPFLTHMFCTFQTKENLFFVMEYLNGGDLMYHIQSCHKFDLSRATFYAAEIILGLQFLHSKGIVYRDLKLDNILLDKDGHIKIADFGMCKENMLGDAKTNTFCGTPDYIAPEILLGQKYNHSVDWWSFGVLLYEMLIGQSPFHGQDEEELFHSIRMDNPFYPRWLEKEAKDLLVKLFVREPEKRLGVRGDIRQHPLFREINWEELERKEIDPPFRPKVKSPFDCSNFDKEFLNEKPRLSFADRALINSMDQNMFRNFSFMNPGMERLIS
